{"source": "patent US20040229289A1", "about": "“Antigen binding peptides (abtides) from peptide libraries” (Cytogen Corporation, priority 1994, published 2004)", "data": [{"target": "T1, PEM (Homo sapiens, UniProt P15941)", "T1 construct": "made in house; host or cells: chemical peptide synthesis", "assay": "ELISA of phage from the MP-1 saturation mutagenesis library for binding to PEM", "conditions": "phage-displayed abtide from MP-1 saturation mutagenesis library", "protocol": "A saturation mutagenesis library based on one of the PEM abtides, MP-1, was constructed. Nucleotide sequences encoding the MP-1 abtide were synthesized using a doping scheme similar to that described in Section 5.3 whereby each nucleotide was contaminated with 9% of each of the other 3 nucleotides (e.g. G=73% G, 9% A, 9% T, 9° C.). The resulting mutagenic oligonucleotides were used to construct a library by TSAR library methods described above (see FIG. 13).\nThe resulting library was screened to identify phage expressing abtides capable of binding to PEM. The binding of isolated phage to PEM was confirmed by an ELISA assay.", "values": [{"molecule": "G PLLPGEAAVHGARGLMRSGCGNGPTWNRLTAACRDSRNKGP (GPLLPGEAAVHGARGLMRSGCGNGPTWNRLTAACRDSRNKGP; phage displayed; extra N-terminal G) [E44]", "binding of isolated phage to PEM (ELISA)": "Positive Binding Sequences"}, {"molecule": "GAPVVGDILWCSGARGAKWPGCGKGPTNKTFSHSRGGTQKSGL [E90]", "binding of isolated phage to PEM (ELISA)": "Positive Binding Sequences"}, {"molecule": "REPVVGGKPWCRGPGGLRWRGCGKSQFDKIITLSRDNRRDKRP [E83]", "binding of isolated phage to PEM (ELISA)": "Negative Binding Sequences"}, {"molecule": "GPPVWSAKSRWTGTGVLNWPGCGKVPSCSTYTPSRDRSRKSDP (phage displayed) [E16]", "binding of isolated phage to PEM (ELISA)": "Positive Binding Sequences"}, {"molecule": "CAPMWSGKPPWCVGGGVKFRGCGNRPDCNIITPRLVESRDKAL [E68]", "binding of isolated phage to PEM (ELISA)": "Positive Binding Sequences"}, {"molecule": "GSSVCGGQPSGRGFGGLPGPGCGNGPTSNTLTSARGGFPNKGL (phage displayed) [E27]", "binding of isolated phage to PEM (ELISA)": "Negative Binding Sequences"}, {"molecule": "G PQGSEHQCCSGHWGLKFPGCGNGPICNNFTALRGASRKNGP (GPQGSEHQCCSGHWGLKFPGCGNGPICNNFTALRGASRKNGP) [E62]", "binding of isolated phage to PEM (ELISA)": "Positive Binding Sequences"}, {"molecule": "GAPLWQGDPADEVLGGSMIPGCGIGALSQTFTPTPGGSRKNVT (phage displayed) [E37]", "binding of isolated phage to PEM (ELISA)": "Negative Binding Sequences"}, {"molecule": "RSAVSEGKPREIVPGGCMWPGCGNGRKSNTLTHGPEQFQEIEP (phage displayed) [E15]", "binding of isolated phage to PEM (ELISA)": "Negative Binding Sequences"}, {"molecule": "GAPVWRGNRWCSDNGELERPGCGYGPRFNILPPGRGNSRKPSP [E73]", "binding of isolated phage to PEM (ELISA)": "Positive Binding Sequences"}, {"molecule": "ADPVCSRKPDGGGLRGLRWPGCGKGPILYNVTAARGGSRNNGP [E70]", "binding of isolated phage to PEM (ELISA)": "Positive Binding Sequences"}, {"molecule": "VSTGWSGTPRWCAPGGKQGSGCGNGPRWTTLTPDLGGTRKYGP (phage displayed) [E4]", "binding of isolated phage to PEM (ELISA)": "Positive Binding Sequences"}, {"molecule": "GAPVWRGNPRWRGPGGFKWPGCGNGPMCNTFTPARGGSRNNGP [MP-1]", "binding of isolated phage to PEM (ELISA)": "Positive Binding Sequences"}, {"molecule": "STPGCSGYSGSGDPRCLTCTACGNGHTRKTLTPAHGRSTHKEP [E72]", "binding of isolated phage to PEM (ELISA)": "Negative Binding Sequences"}, {"molecule": "GSPVWSGDNRWRGSSPLKRPGCGNGAKCNTLKDNRKDSRKTKH (phage displayed) [E33]", "binding of isolated phage to PEM (ELISA)": "Positive Binding Sequences"}, {"molecule": "GTRVPPGFALRGGRDGLSWAGCGKAPISKTYTSARGRSRKKGS (phage displayed) [E3]", "binding of isolated phage to PEM (ELISA)": "Negative Binding Sequences"}, {"molecule": "SSGVGNGKPRSWAPDALNGGCGNIQFANTITPDRGGSCNQTL (phage displayed) [E24]", "binding of isolated phage to PEM (ELISA)": "Negative Binding Sequences"}, {"molecule": "GSALLTSKGCVRGPGGLMRPGCGNDRLGKSSTYAHGGWIKTGP (phage displayed) [E21]", "binding of isolated phage to PEM (ELISA)": "Positive Binding Sequences"}, {"molecule": "GPRSWMGQPRGSDAGSCKWAGCGDAPMWRASTPGHGGPPNRGS [E85]", "binding of isolated phage to PEM (ELISA)": "Positive Binding Sequences"}, {"molecule": "AGRELRQDEGEGGAGADVARLREGPICSTFTPARGGSCPSGL (phage displayed) [E43]", "binding of isolated phage to PEM (ELISA)": "Negative Binding Sequences"}, {"molecule": "GAHGYKNGSTCTGLGGWRCRGCGKGAMCNNPSPAGGAYHNQGP (phage displayed) [E29]", "binding of isolated phage to PEM (ELISA)": "Positive Binding Sequences"}, {"molecule": "GEPVWCRHSGGRVQGGLDWLGCGDGPLRYTVTPARGGPSKHGP [E64]", "binding of isolated phage to PEM (ELISA)": "Positive Binding Sequences"}, {"molecule": "QARVSMAISCRSGPSDLMHQGCGYGPRCNPDTTDSGGSHTNTP (phage displayed) [E49]", "binding of isolated phage to PEM (ELISA)": "Negative Binding Sequences"}, {"molecule": "GAPLWCEKLSGTGSGGFKWPGCGSGPTYNTFTPARVGSDNKWP [E7]", "binding of isolated phage to PEM (ELISA)": "Positive Binding Sequences"}, {"molecule": "GAPVSRCKPACGGFWGVNWPGCGNASMCKTFTNGHGVSSDNGH (phage displayed) [E22]", "binding of isolated phage to PEM (ELISA)": "Positive Binding Sequences"}, {"molecule": "EALVCRGKPPWSGPAGLLWQGCGTGPVSRTFTSAQGRSRNKTS [E88]", "binding of isolated phage to PEM (ELISA)": "Positive Binding Sequences"}, {"molecule": "GDPECRGKPRGRWTGSLACTGCGNGPNSKICTRARGVSRNKGP [E60]", "binding of isolated phage to PEM (ELISA)": "Negative Binding Sequences"}, {"molecule": "GSPVWMGSTRWTGHGWFRSQGCGNVPRTNSCAPAGKDSQNKGP [E65]", "binding of isolated phage to PEM (ELISA)": "Positive Binding Sequences"}, {"molecule": "GSSGWKVKHRCGGPGTLQRPGCGNLPLGHTFPPTRGGSHMEGA [E84]", "binding of isolated phage to PEM (ELISA)": "Positive Binding Sequences"}, {"molecule": "GQPECRITSGCCGTDGNKWLGCGKVDMCNTLNPAVGCHGTNGS (phage displayed) [E34]", "binding of isolated phage to PEM (ELISA)": "Negative Binding Sequences"}, {"molecule": "GLSLVRGDSWGSGAGGWKRHGCGHGPMYNPQTPARGGSCTRNT [E66]", "binding of isolated phage to PEM (ELISA)": "Positive Binding Sequences"}, {"molecule": "VSRAWSGKPRLMGSHGLNCPGCGKGHSGIMFIPDPAGSANTPP [E67]", "binding of isolated phage to PEM (ELISA)": "Positive Binding Sequences"}]}, {"target": "T2, PEM peptide (human)", "T2 peptide": "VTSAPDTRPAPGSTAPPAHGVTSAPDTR", "assay": "phage ELISA on PEM", "conditions": "not given", "values": [{"molecule": "GSPVWMGSTRWTGHGWFRSQGCGNVPRTNSCAPAGKDSQNKGP", "note": "[E65]", "binding result": "binds"}, {"molecule": "CAPMWSGKPPWCVGGGVKFRGCGNRPDCNIITPRLVESRDKAL", "note": "[E68]", "binding result": "binds"}, {"molecule": "ADPVCSRKPDGGGLRGLRWPGCGKGPILYNVTAARGGSRNNGP", "note": "[E70]", "binding result": "binds"}, {"molecule": "GAPVSRCKPACGGFWGVNWPGCGNASMCKTFTNGHGVSSDNGH", "note": "[E22]", "binding result": "binds"}, {"molecule": "RSAVSEGKPREIVPGGCMWPGCGNGRKSNTLTHGPEQFQEIEP", "note": "[E15]", "binding result": "no binding"}, {"molecule": "GAPVWRGNRWCSDNGELERPGCGYGPRFNILPPGRGNSRKPSP", "note": "[E73]", "binding result": "binds"}, {"molecule": "AGRELRQDEGEGGAGADVARLREGPICSTFTPARGGSCPSGL", "note": "[E43]", "binding result": "no binding"}, {"molecule": "GAPLWCEKLSGTGSGGFKWPGCGSGPTYNTFTPARVGSDNKWP", "note": "[E7]", "binding result": "binds"}, {"molecule": "GSPVWSGDNRWRGSSPLKRPGCGNGAKCNTLKDNRKDSRKTKH", "note": "[E33]", "binding result": "binds"}, {"molecule": "SSGVGNGKPRSWAPDALNGGCGNIQFANTITPDRGGSCNQTL", "note": "[E24]", "binding result": "no binding"}, {"molecule": "GLSLVRGDSWGSGAGGWKRHGCGHGPMYNPQTPARGGSCTRNT", "note": "[E66]", "binding result": "binds"}, {"molecule": "GAPLWQGDPADEVLGGSMIPGCGIGALSQTFTPTPGGSRKNVT", "note": "[E37]", "binding result": "no binding"}, {"molecule": "GSSVCGGQPSGRGFGGLPGPGCGNGPTSNTLTSARGGFPNKGL", "note": "[E27]", "binding result": "no binding"}, {"molecule": "GAPVVGDILWCSGARGAKWPGCGKGPTNKTFSHSRGGTQKSGL", "note": "[E90]", "binding result": "binds"}, {"molecule": "GEPVWCRHSGGRVQGGLDWLGCGDGPLRYTVTPARGGPSKHGP", "note": "[E64]", "binding result": "binds"}, {"molecule": "GSALLTSKGCVRGPGGLMRPGCGNDRLGKSSTYAHGGWIKTGP", "note": "[E21]", "binding result": "binds"}, {"molecule": "GSSGWKVKHRCGGPGTLQRPGCGNLPLGHTFPPTRGGSHMEGA", "note": "[E84]", "binding result": "binds"}, {"molecule": "GPPVWSAKSRWTGTGVLNWPGCGKVPSCSTYTPSRDRSRKSDP", "note": "[E16]", "binding result": "binds"}, {"molecule": "GPRSWMGQPRGSDAGSCKWAGCGDAPMWRASTPGHGGPPNRGS", "note": "[E85]", "binding result": "binds"}, {"molecule": "EALVCRGKPPWSGPAGLLWQGCGTGPVSRTFTSAQGRSRNKTS", "note": "[E88]", "binding result": "binds"}, {"molecule": "VSRAWSGKPRLMGSHGLNCPGCGKGHSGIMFIPDPAGSANTPP", "note": "[E67]", "binding result": "binds"}, {"molecule": "GAHGYKNGSTCTGLGGWRCRGCGKGAMCNNPSPAGGAYHNQGP", "note": "[E29]", "binding result": "binds"}, {"molecule": "GTRVPPGFALRGGRDGLSWAGCGKAPISKTYTSARGRSRKKGS", "note": "[E3]", "binding result": "no binding"}, {"molecule": "GQPECRITSGCCGTDGNKWLGCGKVDMCNTLNPAVGCHGTNGS", "note": "[E34]", "binding result": "no binding"}, {"molecule": "VSTGWSGTPRWCAPGGKQGSGCGNGPRWTTLTPDLGGTRKYGP", "note": "[E4]", "binding result": "binds"}]}]}
